± gives the standard error. Fewer inactive variants are shown than the library holds.

The record followed here is the supplement of paper PMC7125110.

B1: glmS ribozyme (parent)
chain: AUAAAAGCGCCAGAACUACAGAAAUGUAGUUGACGAGGAGGAGGUUUAUCGAAUUUUCGGCGGAUGCCUCCAAA

Variants of B1 are the subject of the series. The experiment in a line: self-cleavage kobs at 10000 uM GlcN6P; higher = faster cleavage; RNA array. Conditions: with glucosamine-6-phosphate. The procedure, abridged: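 On sequenced MiSeq chips, barcoded ribozyme variants were made in situ by E. coli RNA polymerase and followed at 37 °C through a hybridised Cy3 probe. Glucosamine-6-phosphate was flowed in at 40 μM to 10 mM in HEPES/KCl/Mg(OAc)2 buffer. Exponential fits to normalised per-tile medians gave kobs, and weighted Michaelis–Menten fits gave kcat and KM.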
With C11U G32A A42G A53U, the “self-cleavage kobs at 10000 uM GlcN6P” value is 9.31e-05 ± 2.5e-05 s⁻¹.

With C11U A15G C16U C50G U54G U56A U69C, the “self-cleavage kobs at 10000 uM GlcN6P” value is less than 1e-05 s⁻¹. As to G29C G41C A42U, the “self-cleavage kobs at 10000 uM GlcN6P” value is less than 1e-05 s⁻¹. Turning to A14C A39U C67G, the “self-cleavage kobs at 10000 uM GlcN6P” value amounted to 0.000928 ± 0.00017 s⁻¹. Next, G35U U47A C61U: less than 1e-05 s⁻¹; C10U G13C G51A A53U A64G G66A: less than 1e-05 s⁻¹; A15U A33C C58A C68A: less than 1e-05 s⁻¹. Next, U31G U47C U54A: 0.00049 ± 8.9e-05 s⁻¹. Next, G41U C67U: 2.83e-05 ± 1.1e-05 s⁻¹. Take G26U U69A: the “self-cleavage kobs at 10000 uM GlcN6P” value was determined as 6.81e-05 ± 2.1e-05 s⁻¹. Next, G51A A52U G59A: less than 1e-05 s⁻¹. On to C10A A12G A52G C70A, for which the “self-cleavage kobs at 10000 uM GlcN6P” value was found to be 6.91e-05 ± 1.7e-05 s⁻¹.

Consider C16U C50G C67U, for which the “self-cleavage kobs at 10000 uM GlcN6P” value was found to be 0.000119 ± 2.9e-05 s⁻¹.

For C8U A14U A36U, the “self-cleavage kobs at 10000 uM GlcN6P” value is less than 1e-05 s⁻¹. As to G29U G37A C67U, the “self-cleavage kobs at 10000 uM GlcN6P” value was 5.27e-05 ± 1.5e-05 s⁻¹. Next, A33U G35C G62U C67U: less than 1e-05 s⁻¹. A48G G62C C70G: the “self-cleavage kobs at 10000 uM GlcN6P” value was less than 1e-05 s⁻¹. In the case of A14G U30A G41U C68A, the “self-cleavage kobs at 10000 uM GlcN6P” value is less than 1e-05 s⁻¹. Next, A12C C68G: 2.93e-05 ± 8.5e-06 s⁻¹; G38U G41A U45G U56A G59U: less than 1e-05 s⁻¹. Next, A42G U46G U56C: 0.00095 ± 0.0002 s⁻¹; G9U A15C G62A: less than 1e-05 s⁻¹; C16U G40C A53C C71U: 0.000561 ± 0.00013 s⁻¹. Next, C8A C11U C34U A39U C58A C67U: less than 1e-05 s⁻¹. Regarding A12C G38U A52U C58A U65A C67U, the “self-cleavage kobs at 10000 uM GlcN6P” value is less than 1e-05 s⁻¹. As for A12C G13U U47A U56A, the “self-cleavage kobs at 10000 uM GlcN6P” value is 4.59e-05 ± 1.6e-05 s⁻¹. Next, A15U G32U U54A: 0.00058 ± 0.00013 s⁻¹; G9A G60U C70G: less than 1e-05 s⁻¹. Next, C8A U56A A64G: less than 1e-05 s⁻¹; C10U A39G A42U U49A A53C U69G: less than 1e-05 s⁻¹. Next, C10A G37C G51A: less than 1e-05 s⁻¹; A14C A15U G32C C58U: 3.19e-05 ± 1.1e-05 s⁻¹. Regarding A36U G40A G43C A52G, the “self-cleavage kobs at 10000 uM GlcN6P” value is 0.00106 ± 0.00036 s⁻¹.

Turning to C10A C11G C16G A48U C50G C70A, the “self-cleavage kobs at 10000 uM GlcN6P” value was found to be 6.85e-05 ± 1.8e-05 s⁻¹. C50U A64C C71A: the “self-cleavage kobs at 10000 uM GlcN6P” value is less than 1e-05 s⁻¹.

In the case of U55G C61A, the “self-cleavage kobs at 10000 uM GlcN6P” value was less than 1e-05 s⁻¹. Next, A18C G38A C50U C58U G59U: less than 1e-05 s⁻¹; G32C C68G C71G: 0.000123 ± 2.3e-05 s⁻¹. Next, A14G U47A G59U C70U: 9.51e-05 ± 1.8e-05 s⁻¹.

U30C U55C C70U: the “self-cleavage kobs at 10000 uM GlcN6P” value was 8.64e-05 ± 1.7e-05 s⁻¹. With A36C A48U G63A, the “self-cleavage kobs at 10000 uM GlcN6P” value is less than 1e-05 s⁻¹. For the variant G32A U55G U65G G66U C70G, the “self-cleavage kobs at 10000 uM GlcN6P” value stood at 3.69e-05 ± 1.7e-05 s⁻¹.

C11U A39U U54G: the “self-cleavage kobs at 10000 uM GlcN6P” value stood at 0.000492 ± 0.00011 s⁻¹. Next, G40U G43U U54C: less than 1e-05 s⁻¹; G32U U57G: 5.4e-05 ± 1.4e-05 s⁻¹. Next, A39U G43A U47C G59A C67U: less than 1e-05 s⁻¹; C8U C16A A39C C58U A64G C67G: less than 1e-05 s⁻¹; A15G G63U A64G: less than 1e-05 s⁻¹. Next, A6U U31C A36C: less than 1e-05 s⁻¹; C8U A48U C71U: less than 1e-05 s⁻¹; C8A G44A U46G C70G: less than 1e-05 s⁻¹.

As to A48U G62C C67G, the “self-cleavage kobs at 10000 uM GlcN6P” value is less than 1e-05 s⁻¹.

For the variant U31C U45A A52G C68U, the “self-cleavage kobs at 10000 uM GlcN6P” value was 0.000129 ± 3.8e-05 s⁻¹.

Turning to A53C U69C, the “self-cleavage kobs at 10000 uM GlcN6P” value came to 0.00127 ± 0.00031 s⁻¹. Next, A15G G29C G43U G60U: less than 1e-05 s⁻¹. Turning to U45G U46C U54G, the “self-cleavage kobs at 10000 uM GlcN6P” value worked out at 0.00762 ± 0.0023 s⁻¹. Regarding G37C A64C C67G, the “self-cleavage kobs at 10000 uM GlcN6P” value is less than 1e-05 s⁻¹. Next, A14G C16A G40C G63U: less than 1e-05 s⁻¹; G9U G43U A53C: less than 1e-05 s⁻¹. Next, A6C C8A A36C: less than 1e-05 s⁻¹; G29A A64G C67G: 5.14e-05 ± 2e-05 s⁻¹.

On to G7U A48G C50G C61G, for which the “self-cleavage kobs at 10000 uM GlcN6P” value was determined as 0.000895 ± 0.00024 s⁻¹.

Turning to G29A C67U C70U, the “self-cleavage kobs at 10000 uM GlcN6P” value is 6.18e-05 ± 1.1e-05 s⁻¹.

As for G7C G35U G38U, the “self-cleavage kobs at 10000 uM GlcN6P” value is less than 1e-05 s⁻¹.

With C8G A15C G40A G41U C50U C70G, the “self-cleavage kobs at 10000 uM GlcN6P” value is less than 1e-05 s⁻¹. For U30G U47C C68U, the “self-cleavage kobs at 10000 uM GlcN6P” value was determined as 0.000171 ± 3.3e-05 s⁻¹. Next, A12C G13C G32A A39U: 5.7e-05 ± 1e-05 s⁻¹. Next, A6U A53C: 5.75e-05 ± 9.2e-06 s⁻¹; A12U G59A C67G: 4.16e-05 ± 1.6e-05 s⁻¹; A6C U31C G35A A42C: less than 1e-05 s⁻¹. Next, A33G G37A U69G: less than 1e-05 s⁻¹. Turning to G9U U30C G32A, the “self-cleavage kobs at 10000 uM GlcN6P” value was less than 1e-05 s⁻¹.

Consider G35C A48G G59U G60A, for which the “self-cleavage kobs at 10000 uM GlcN6P” value is less than 1e-05 s⁻¹.

As for G13C U30C U47A, the “self-cleavage kobs at 10000 uM GlcN6P” value is 8.1e-05 ± 2.1e-05 s⁻¹. Next, A14G G43U U47A C58A C67A: 7.13e-05 ± 1.3e-05 s⁻¹; C10A A14C U30G: less than 1e-05 s⁻¹. Take G13A U46A: the “self-cleavage kobs at 10000 uM GlcN6P” value was determined as 4.05e-05 ± 1.3e-05 s⁻¹. Next, A14U U30G U55G C70A: 3.35e-05 ± 1.5e-05 s⁻¹; A15C C16G U56A C61G: less than 1e-05 s⁻¹; G32U A53G C67G: 0.000238 ± 3.8e-05 s⁻¹. Next, U30A A48G C68A: less than 1e-05 s⁻¹. With A14C A48C G59U, the “self-cleavage kobs at 10000 uM GlcN6P” value was less than 1e-05 s⁻¹.

For U49A C50G G51A C61A G62U, the “self-cleavage kobs at 10000 uM GlcN6P” value was less than 1e-05 s⁻¹. Next, G32C A53G C67G: 3.72e-05 ± 1.3e-05 s⁻¹; G9C G38C G43U: less than 1e-05 s⁻¹. Next, U49A U54C C67G: less than 1e-05 s⁻¹; A15U A53U G63C: less than 1e-05 s⁻¹; G29C U46G A64U: less than 1e-05 s⁻¹.

Consider A12C G26A G41A U54G, for which the “self-cleavage kobs at 10000 uM GlcN6P” value was determined as 0.00044 ± 0.00012 s⁻¹. For A6C C10G U31A G43U C70U, the “self-cleavage kobs at 10000 uM GlcN6P” value is less than 1e-05 s⁻¹. Turning to G9C C11U C61G, the “self-cleavage kobs at 10000 uM GlcN6P” value was 0.000219 ± 4.5e-05 s⁻¹. Next, G7U C50G G51A C70G: 6.12e-05 ± 1.7e-05 s⁻¹. In the case of G38U G40U G41C U47C G59C C68G, the “self-cleavage kobs at 10000 uM GlcN6P” value is less than 1e-05 s⁻¹. Next, G32U G40U C70U: 5.9e-05 ± 1.3e-05 s⁻¹; C34A A64G U69C: less than 1e-05 s⁻¹; A6G C10A U30C U49A: less than 1e-05 s⁻¹. In the case of U46C C68A, the “self-cleavage kobs at 10000 uM GlcN6P” value turned out to be 3.47e-05 ± 1e-05 s⁻¹. As for A39G U54A G62U G66A, the “self-cleavage kobs at 10000 uM GlcN6P” value is less than 1e-05 s⁻¹. Regarding G9A C34A A64G C70G, the “self-cleavage kobs at 10000 uM GlcN6P” value is less than 1e-05 s⁻¹. Next, G60A C68U C70U: less than 1e-05 s⁻¹; G13C U49G G59U: less than 1e-05 s⁻¹. For U30G A33G C71G, the “self-cleavage kobs at 10000 uM GlcN6P” value is less than 1e-05 s⁻¹. G9U A15U A52U: the “self-cleavage kobs at 10000 uM GlcN6P” value is less than 1e-05 s⁻¹. Next, A15U G21U: 0.00395 ± 0.00079 s⁻¹. Next, G38A U46G U57G C58A: less than 1e-05 s⁻¹. Next, A42C U49C U57A: less than 1e-05 s⁻¹; G41C U57G: less than 1e-05 s⁻¹. Regarding A14U A53C C67U, the “self-cleavage kobs at 10000 uM GlcN6P” value was 0.000208 ± 3.8e-05 s⁻¹.
